Biological target: T1, B3GNT2 (Homo sapiens, UniProt Q9NY97)
T1 construct: The respective ORFs of candidate genes [CD274 (NM_014143), MCL1 (NM_021960), JUNB (NM_002229), and B3GNT2 (NM_006577)] were synthesized; expressed in transfected cells; host or cells: A375 melanoma cells (lentiviral ORF overexpression)
T1 sequence (Q9NY97 1-397): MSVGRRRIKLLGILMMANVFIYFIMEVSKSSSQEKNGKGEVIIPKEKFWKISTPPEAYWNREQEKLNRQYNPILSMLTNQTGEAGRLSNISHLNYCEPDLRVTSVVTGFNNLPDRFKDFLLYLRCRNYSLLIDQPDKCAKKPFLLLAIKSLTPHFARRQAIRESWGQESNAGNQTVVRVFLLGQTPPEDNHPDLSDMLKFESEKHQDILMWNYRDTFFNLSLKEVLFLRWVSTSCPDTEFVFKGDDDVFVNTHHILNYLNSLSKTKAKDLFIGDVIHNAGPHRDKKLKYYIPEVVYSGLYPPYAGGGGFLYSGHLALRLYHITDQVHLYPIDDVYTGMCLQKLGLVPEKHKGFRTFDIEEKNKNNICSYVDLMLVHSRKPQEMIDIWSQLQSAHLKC
Experiment: Co-IP of FLAG-tagged B3GNT2 followed by mass spectrometry
Type: cell-based
Set-up: C-term IgG / C-term flag: unit not given here
Details: mass spectrometry count, unit not given; for C-term flag / N-term FLAG: Co-IP with FLAG antibody; for C-term flag / C-term IgG: C-terminally FLAG-tagged B3GNT2; for N-term FLAG / N-term IgG: N-terminally FLAG-tagged B3GNT2; for C-term IgG / N-term IgG: Co-IP with IgG control antibody
How it was run: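 FLAG-tagged B3GNT2 immunoprecipitated from cell lysate (HEPES, 1% Triton X-100, 150 mM NaCl) with anti-FLAG versus […], overnight at 4° C, then captured on Protein A/G magnetic beads for 4 h. Two biological replicates per condition. Peptides fractionated and analyzed by nano-LC on an Orbitrap Elite in data-dependent mode.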

B1: SLC25A22 (protein)
chain: MADKQISLPAKLINGGIAGLIGVTCVFPIDLAKTRLQNQQNGQRVYTSMSDCLIKTVRSEGYFGMYRGAAVNLTLVTPEKAIKLAANDFFRHQLSKDGQKLTLLKEMLAGCGAGTCQVIVTTPMEMLKIQLQDAGRIAAQRKILAAQGQLSAQGGAQPSVEAPAAPRPTATQLTRDLLRSRGIAGLYKGLGATLLRDVPFSVVYFPLFANLNQLGRPASEEKSPFYVSFLAGCVAGSAAAVAVNPCDVVKTRLQSLQRGVNEDTYSGILDCARKILRHEGPSAFLKGAYCRALVIAPLFGIAQVVYFLGIAESLLGLLQDPQA
C-term flag: 2
N-term FLAG: 0
C-term IgG: 0
N-term IgG: 0

B2: ACSL3 (protein)
chain: MNNHVSSKPSTMKLKHTINPILLYFIHFLISLYTILTYIPFYFFSESRQEKSNRIKAKPVNSKPDSAYRSVNSLDGLASVLYPGCDTLDKVFTYAKNKFKNKRLLGTREVLNEEDEVQPNGKIFKKVILGQYNWLSYEDVFVRAFNFGNGLQMLGQKPKTNIAIFCETRAEWMIAAQACFMYNFQLVTLYATLGGPAIVHALNETEVTNIITSKELLQTKLKDIVSLVPRLRHIITVDGKPPTWSEFPKGIIVHTMAAVEALGAKASMENQPHSKPLPSDIAVIMYTSGSTGLPKGVMISHSNIIAGITGMAERIPELGEEDVYIGYLPLAHVLELSAELVCLSHGCRIGYSSPQTLADQSSKIKKGSKGDTSMLKPTLMAAVPEIMDRIYKNVMNKVSEMSSFQRNLFILAYNYKMEQISKGRNTPLCDSFVFRKVRSLLGGNIRLLLCGGAPLSATTQRFMNICFCCPVGQGYGLTESAGAGTISEVWDYNTGRVGAPLVCCEIKLKNWEEGGYFNTDKPHPRGEILIGGQSVTMGYYKNEAKTKADFFEDENGQRWLCTGDIGEFEPDGCLKIIDRKKDLVKLQAGEYVSLGKVEAALKNLPLVDNICAYANSYHSYVIGFVVPNQKELTELARKKGLKGTWEELCNSCEMENEVLKVLSEAAISASLEKFEIPVKIRLSPEPWTPETGLVTDAFKLKRKELKTHYQADIERMYGRK
C-term flag: 5
N-term FLAG: 5
C-term IgG: 0
N-term IgG: 0

B3: TUBA1C (protein, UniProt Q9BQE3 1-449, looked up)
Tubulin alpha-1C chain: MRECISIHVGQAGVQIGNACWELYCLEHGIQPDGQMPSDKTIGGGDDSFNTFFSETGAGKHVPRAVFVDLEPTVIDEVRTGTYRQLFHPEQLITGKEDAANNYARGHYTIGKEIIDLVLDRIRKLADQCTGLQGFLVFHSFGGGTGSGFTSLLMERLSVDYGKKSKLEFSIYPAPQVSTAVVEPYNSILTTHTTLEHSDCAFMVDNEAIYDICRRNLDIERPTYTNLNRLISQIVSSITASLRFDGALNVDLTEFQTNLVPYPRIHFPLATYAPVISAEKAYHEQLTVAEITNACFEPANQMVKCDPRHGKYMACCLLYRGDVVPKDVNAAIATIKTKRTIQFVDWCPTGFKVGINYQPPTVVPGGDLAKVQRAVCMLSNTTAVAEAWARLDHKFDLMYAKRAFVHWYVGEGMEEGEFSEAREDMAALEKDYEEVGADSADGEDEGEEY
C-term flag: 63
N-term FLAG: 76
C-term IgG: 14
N-term IgG: 8

B4: DNAJA3 (protein)
chain: GVSLTGTKHNPFICTASFHTSAPLAKEDYYQILGVPRNASQKEIKKAYYQLAKKYHPDTNKDDPKAKEKFSQLAEAYEVLSDEVKRKQYDAYGSAGFDPGASGSQHSYWKGGPTVDPEELFRKIFGEFSSSSFGDFQTVFDQPQEYFMELTFNQAAKGVNKEFTVNIMDTCERCNGKGNEPGTKVQHCHYCGGSGMETINTGPFVMRSTCRRCGGRGSIIISPCVVCRGAGQAKQKKRVMIPVPAGVEDGQTVRMPVGKREIFITFRVQKSPVFRRDGADIHSDLFISIAQALLGGTARAQGLYETINVTIPPGTQTDQKIRMGGKGIPRINSYGYGDHYIHIKIRVPKRLTSRQQSLILSYAEDETDVEGTVNGVTLTSSGKRSTGN
C-term flag: 2
N-term FLAG: 0
C-term IgG: 0
N-term IgG: 0

B5: PGAM5 (protein)
chain: MAFRQALQLAACGLAGGSAAVLFSAVAVGKPRAGGDAEPRPAEPPAWAGGARPGPGVWDPNWDRREPLSLINVRKRNVESGEEELASKLDHYKAKATRHIFLIRHSQYHVDGSLEKDRTLTPLGREQAELTGLRLASLGLKFNKIVHSSMTRAIETTDIISRHLPGVCKVSTDLLREGAPIEPDPPVSHWKPEAVQYYEDGARIEAAFRNYIHRADARQEEDSYEIFICHANVIRYIVCRALQFPPEGWLRLSLNNGSITHLVIRPNGRVALRTLGDTGFMPPDKITRS
C-term flag: 5
N-term FLAG: 4
C-term IgG: 0
N-term IgG: 0

B6: PSMC2 (protein)
chain: PDYLGADQRKTKEDEKDDKPIRALDEGDIALLKTYGQSTYSRQIKQVEDDIQQLLKKINELTGIKESDTGLAPPALWDLAADKQTLQSEQPLQVARCTKIINADSEDPKYIINVKQFAKFVVDLSDQVAPTDIEEGMRVGVDRNKYQIHIPLPPKIDPTVTMMQVEEKPDVTYSDVGGCKEQIEKLREVVETPLLHPERFVNLGIEPPKGVLLFGPPGTGKTLCARAVANRTDACFIRVIGSELVQKYVGEGARMVRELFEMARTKKACLIFFDEIDAIGGARFDDGAGGDNEVQRTMLELINQLDGFDPRGNIKVLMATNRPDTLDPALMRPGRLDRKIEFSLPDLEGRTHIFKIHARSMSVERDIRFELLARLCPNSTGAEIRSVCTEAGMFAIRARRKIATEKDFLEAVNKVIKSYAKFSATPRYMTYN
C-term flag: 0
N-term FLAG: 2
C-term IgG: 0
N-term IgG: 0

B7: IFI16 (protein)
chain: MGKKYKNIVLLKGLEVINDYHFRMVKSLLSNDLKLNLKMREEYDKIQIADLMEEKFRGDAGLGKLIKIFEDIPTLEDLAETLKKEKLKVKGPALSRKRKKEVDATSPAPSTSSTVKTEGAEATPGAQKRKKSTKEKAGPKGSKVSEEQTQPPSPAGAGMSTAMGRSPSPKTSLSAPPNSSSTENPKTVAKCQVTPRRNVLQKRPVIVKVLSTTKPFEYETPEMEKKIMFHATVATQTQFFHVKVLNTSLKEKFNGKKIIIISDYLEYDSLLEVNEESTVSEAGPNQTFEVPNKIINRAKETLKIDILHKQASGNIVYGVFMLHKKTVNQKTTIYEIQDDRGKMDVVGTGQCHNIPCEEGDKLQLFCFRLRKKNQMSKLISEMHSFIQIKKKTNPRNNDPKSMKLPQEQRQLPYPSEASTTFPESHLRTPQMPPTTPSSSFFTKKSEDTISKMNDFMRMQILKEGSHFPGPFMTSIGPAESHPHTPQMPPSTPSSSFLTTLKPRLKTEPEEVSIEDSAQSDLKEVMVLNATESFVYEPKEQKKMFHATVATENEVFRVKVFNIDLKEKFTPKKIIAIANYVCRNGFLEVYPFTLVADVNADRNMEIPKGLIRSASVTPKINQLCSQTKGSFVNGVFEVHKKNVRGEFTYYEIQDNTGKMEVVVHGRLTTINCEEGDKLKLTCFELAPKSGNTGELRSVIHSHIKVIKTRKNKKDILNPDSSMETSPDFFF
C-term flag: 2
N-term FLAG: 0
C-term IgG: 0
N-term IgG: 0

B8: RCN1 (protein)
chain: KPTVRKERVVRPDSELGERPPEDNQSFQYDHEAFLGKEDSKTFDQLTPDESKERLGKIVDRIDNDGDGFVTTEELKTWIKRVQKRYIFDNVAKVWKDYDRDKDDKISWEEYKQATYGYYLGNPAEFHDSSDHHTFKKMLPRDERRFKAADLNGDLTATREEFTAFLHPEEFEHMKEIVVLETLEDIDKNGDGFVDQDEYIADMFSHEENGPEPDWVLSEREQFNEFRDLNKDGKLDKDEIRHWILPQDYDHAQAEARHLVYESDKNKDEKLTKEEILENWNMFVGSQATNYGEDLTKNHDEL
C-term flag: 9
N-term FLAG: 0
C-term IgG: 0
N-term IgG: 0
